Where two headings read alike, the source gives them in different places.
Test: In vivo biodistribution by organ and tissue extraction
Set-up: species or system male Wistar rats
Settings: for tissue uptake dose at 4 h / SUV at 24 h / tissue uptake dose at 24 h / SUV at 48 h / tissue uptake dose at 48 h / SUV at 1 h / tissue uptake dose at 1 h / SUV at 4 h / tissue uptake dose at 5 min / SUV at 5 min / tissue uptake dose: male, Wistar, total radioactivity; for tissue uptake dose at 4 h / SUV at 4 h: 240 min p.i.; for tissue uptake dose at 4 h / SUV at 24 h / tissue uptake dose at 24 h / SUV at 48 h / tissue uptake dose at 48 h / SUV at 1 h / tissue uptake dose at 1 h / SUV at 4 h / tissue uptake dose at 5 min / SUV at 5 min: mean ± SD; for SUV at 24 h / tissue uptake dose at 24 h: 1440 min p.i.; for SUV at 48 h / tissue uptake dose at 48 h: 2880 min p.i.; for SUV at 1 h / tissue uptake dose at 1 h: 60 min p.i.; for tissue uptake dose at 5 min / SUV at 5 min: 5 min p.i.; for tissue uptake dose: whole body, end of observation (Fig. 7c), time not given, mean ± SEM, read-out: remaining activity in the body; for AUC Kidney / AUC Liver: calculated between 1 and 48 h; for t1/2 Blood / t1/2 Kidney / t1/2 Liver: calculated from 24 to 48 h
Procedure: The present study includes data obtained from a total of 50 animals. Four animals (body weight 227 ± 10 g) for each time point were injected intravenously into a tail vein or subcutaneously with approximately 0.3 MBq ([…]) [^64Cu]Cu-NOTA-HsTX1[R14A] conjugate in 0.5 mL electrolyte solution E-153 (Serumwerk Bernburg, Germany). Animals were euthanised at 5, 60, 240, 1440 and 2880 min post-injection. Blood and the major organs were collected, weighed, and counted in a cross-calibrated γ-counter (Isomed 1000, Isomed GmbH, Dresden) and Wallac WIZARD Automatic Gamma Counter (PerkinElmer, Germany). The radioactivity of the tissue samples was decay-corrected and calibrated by comparing the counts in tissue with the counts in aliquots of the injected radiotracer that had been measured in the γ-counter at the same time. The activity in the selected organs was expressed as percent-injected dose per organ (% ID) and the activity concentration in tissues and organs as standardised uptake value (SUV). Values are quoted as mean ± standard error of mean (SEM) for each group of four animals.

[1] = testes, iv, 0.3 MBq, rat, i.v., n=4, read-out: Testes activity amount
[2] = testes, sc, 0.3 MBq, rat, s.c., n=4, read-out: Testes SUV
[3] = testes, sc, 0.3 MBq, rat, s.c., n=4, read-out: Testes activity amount
[4] = thymus, iv, 0.3 MBq, rat, i.v., n=4, read-out: Thymus activity amount
[5] = thymus, iv, 0.3 MBq, rat, i.v., n=8, read-out: Thymus activity amount
[6] = thymus, iv, rat, i.v., n=4, read-out: Thymus SUV
[7] = thymus, iv, rat, i.v., n=8, read-out: Thymus SUV
[8] = thymus, sc, 0.3 MBq, rat, s.c., n=4, read-out: Thymus activity amount
[9] = thymus, sc, rat, s.c., n=4, read-out: Thymus SUV
[10] = thyroid, iv, 0.3 MBq, rat, i.v., n=4, read-out: Thyroid activity amount
[11] = thyroid, iv, 0.3 MBq, rat, i.v., n=8, read-out: Thyroid activity amount
[12] = thyroid, sc, 0.3 MBq, rat, s.c., n=4, read-out: Thyroid activity amount
[13] = white adipose tissue, iv, 0.3 MBq, rat, i.v., n=4, read-out: WAT (white adipose tissue) SUV
[14] = white adipose tissue, iv, 0.3 MBq, rat, i.v., n=8, read-out: WAT (white adipose tissue) SUV
[15] = white adipose tissue, sc, 0.3 MBq, rat, s.c., n=4, read-out: WAT (white adipose tissue) SUV
[16] = whole blood, iv, 0.3 MBq, rat, i.v., n=4, read-out: Blood SUV

SMILES: CSCC[C@@H]1NC(=O)[C@@H]2CSSC[C@H](NC(=O)[C@H](CO)NC(=O)[C@H](C)NC(=O)COCCOCCNC(=O)CN3CCN(CC(=O)O)CCN(CC(=O)O)CC3)C(=O)N[C@@H](CCCNC(=N)N)C(=O)N[C@@H]([C@@H](C)O)C(=O)N3CCC[C@H]3C(=O)N[C@@H](CCCCN)C(=O)N[C@@H](CC(=O)O)C(=O)N[C@H]3CSSC[C@H](NC(=O)[C@H](CCCCN)NC(=O)[C@H](CCCNC(=N)N)NC(=O)[C@H](CC(N)=O)NC1=O)C(=O)N[C@@H](CCCCN)C(=O)N[C@H]1CSSC[C@H](NC(=O)[C@@H]4CCCN4C(=O)[C@H](CC(=O)O)NC(=O)[C@H](C)NC3=O)C(=O)N[C@@H](C)C(=O)N[C@@H](CCCCN)C(=O)N[C@@H](CCC(=O)O)C(=O)N[C@@H]([C@@H](C)O)C(=O)NCC(=O)N[C@@H](CSSC[C@@H](C(N)=O)NC(=O)[C@H](CCCNC(=N)N)NC(=O)[C@H](CC(N)=O)NC1=O)C(=O)N1CCC[C@H]1C(=O)N[C@@H](Cc1ccc(O)cc1)C(=O)NCC(=O)N[C@@H](CCCCN)C(=O)N2 [[^64Cu]Cu-NOTA-HsTX1[R14A], metal not drawn]
- tissue uptake dose at 4 h [1]: 0.21 ± 0.01 %ID
- SUV at 24 h (testes, iv, 0.3 MBq, rat, i.v., n=8, read-out: Testes SUV): 0.87 ± 0.34 SUV
- tissue uptake dose at 24 h (testes, iv, 0.3 MBq, rat, i.v., n=8, read-out: Testes activity amount): 1.05 ± 0.13 %ID
- SUV at 48 h (testes, iv, 0.3 MBq, rat, i.v., n=4, read-out: Testes SUV): 0.5 ± 0.02 SUV
- tissue uptake dose at 48 h [1]: 0.76 ± 0.02 %ID
- SUV at 1 h [2]: 0.15 ± 0.01 SUV
- tissue uptake dose at 1 h [3]: 0.21 ± 0.01 %ID
- SUV at 4 h [2]: 0.12 ± 0.01 SUV
- tissue uptake dose at 4 h [3]: 0.2 ± 0.03 %ID
- SUV at 24 h [2]: 0.54 ± 0.02 SUV
- tissue uptake dose at 24 h [3]: 0.92 ± 0.06 %ID
- SUV at 48 h [2]: 0.44 ± 0.01 SUV
- tissue uptake dose at 48 h [3]: 0.63 ± 0.06 %ID
- tissue uptake dose at 5 min [4]: 0.37 ± 0.07 %ID
- tissue uptake dose at 1 h [5]: 0.37 ± 0.08 %ID
- tissue uptake dose at 4 h [4]: 0.37 ± 0.04 %ID
- tissue uptake dose at 24 h [5]: 0.21 ± 0.03 %ID
- tissue uptake dose at 48 h [4]: 0.17 ± 0.02 %ID
- SUV at 5 min [6]: 1.51 ± 0.08 SUV
- SUV at 1 h [7]: 1.33 ± 0.19 SUV
- SUV at 4 h [6]: 1.07 ± 0.02 SUV
- SUV at 24 h [7]: 0.74 ± 0.15 SUV
- SUV at 48 h [6]: 0.53 ± 0.02 SUV
- tissue uptake dose at 1 h [8]: 0.46 ± 0.01 %ID
- tissue uptake dose at 4 h [8]: 0.43 ± 0.04 %ID
- tissue uptake dose at 24 h [8]: 0.22 ± 0.01 %ID
- tissue uptake dose at 48 h [8]: 0.16 ± 0.02 %ID
- SUV at 1 h [9]: 1.15 ± 0.03 SUV
- SUV at 4 h [9]: 1.07 ± 0.11 SUV
- SUV at 24 h [9]: 0.63 ± 0.05 SUV
- SUV at 48 h [9]: 0.46 ± 0.05 SUV
- tissue uptake dose at 5 min [10]: 0.07 %ID
- tissue uptake dose at 1 h [11]: 0.11 ± 0.02 %ID
- tissue uptake dose at 4 h [10]: 0.12 ± 0.01 %ID
- tissue uptake dose at 24 h [11]: 0.08 ± 0.01 %ID
- tissue uptake dose at 48 h [10]: 0.07 ± 0.02 %ID
- tissue uptake dose at 1 h [12]: 0.13 ± 0.02 %ID
- tissue uptake dose at 4 h [12]: 0.11 ± 0.02 %ID
- tissue uptake dose at 24 h [12]: 0.09 ± 0.05 %ID
- tissue uptake dose at 48 h [12]: 0.03 ± 0.02 %ID
- SUV at 5 min [13]: 0.28 ± 0.06 SUV
- SUV at 1 h [14]: 0.19 ± 0.07 SUV
- SUV at 4 h [13]: 0.15 SUV
- SUV at 24 h [14]: 0.19 ± 0.09 SUV
- SUV at 48 h [13]: 0.34 ± 0.08 SUV
- SUV at 1 h [15]: 0.25 ± 0.05 SUV
- SUV at 4 h [15]: 0.17 ± 0.05 SUV
- SUV at 24 h [15]: 0.22 ± 0.01 SUV
- SUV at 48 h [15]: 0.17 ± 0.08 SUV
- SUV at 4 h [16]: 0.51 ± 0.02 SUV
- SUV at 24 h (whole blood, iv, 0.3 MBq, rat, i.v., n=8, read-out: Blood SUV): 0.71 ± 0.16 SUV
- SUV at 48 h [16]: 0.38 ± 0.02 SUV
- SUV at 1 h (whole blood, sc, 0.3 MBq, rat, s.c., n=4, read-out: Blood SUV): 0.65 ± 0.11 SUV
- tissue uptake dose (iv, 0.3 MBq, rat, i.v., 8 animals): 48 ± 3 %ID
- tissue uptake dose (sc, 0.3 MBq, rat, s.c., 4 animals): 45 ± 3 %ID
- brain uptake (rat): negligible
- AUC Kidney (rat, i.v., n=8): 1417 ± 102 SUV x h
- AUC Liver (rat, i.v., n=8): 92,7 ± 11,0 SUV x h
- t1/2 Blood (rat, i.v., n=8): 49,5 h
- t1/2 Kidney (rat, i.v., n=8): 14,7 h
- t1/2 Liver (rat, i.v., n=8): 39,5 h
- Cmax Kidney (rat, i.v., n=8): 74,8 ± 12,8 SUV
- Cmax Liver (rat, i.v., n=8): 2,50 ± 0,57 SUV
- Peak time Blood (rat, i.v., n=8): 1 h
- Peak time Kidney (rat, i.v., n=8): 1 h
- Peak time Liver (rat, i.v., n=8): 24 h
- AUC Kidney (rat, s.c., n=4): 1285 ± 57 SUV x h
- AUC Liver (rat, s.c., n=4): 87,8 ± 9,5 SUV x h
- t1/2 Blood (rat, s.c., n=4): 46,4 h
- t1/2 Kidney (rat, s.c., n=4): 18,9 h
- t1/2 Liver (rat, s.c., n=4): 35,9 h
- Cmax Blood (rat, s.c., n=4): 0,65 ± 0,11 SUV
- Cmax Kidney (rat, s.c., n=4): 70,2 ± 4,1 SUV
- Cmax Liver (rat, s.c., n=4): 2,23 ± 0,32 SUV
- Peak time Blood (rat, s.c., n=4): 1 h
- Peak time Kidney (rat, s.c., n=4): 4 h
- Peak time Liver (rat, s.c., n=4): 24 h
- biological half-life of the total activity in the rat body (s.c.): 42.0 h
